Experimental data: the supplement of paper PMC12636428

Tested on: Saccharomyces cerevisiae
Test: transcriptional activation domain activity (GFP:mCherry ratio, weighted mean of sorted bins, harmonized to initial dataset scale) (arbitrary fluorescence ratio units); higher = stronger transcriptional activation
Settings: beta-estradiol 1 µM; induction time 4 h
Outline: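 Yeast diploids with a GFP reporter received barcoded protein tiles, fused to an estradiol-inducible synthetic transcription factor, at the URA3 locus. Cultures were diluted 1:5 into SC holding 1 uM beta-estradiol, incubated 4 hours at 30 °C, sorted into 8 bins on GFP:mCherry ratio, and sequenced for barcodes, with tiles under 50 reads discarded. Activation activity values come from the read-weighted mean of bin median fluorescence, averaged across barcodes and linearly placed on the initial dataset scale.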

Row | Sequence | transcriptional activation domain activity
1 | ILLRRAWTVNAEMLLHKFDPRLFPLYFRILYPTWDTCSIPAPSRLVGAAKQWL | 46700
2 | ILLSLFANHFPWDFRDALCLEFWVVAFRNLEMLEYFDGDLLLSEHGGTCTVSK | 34800
3 | ILLTCLLQICCRFVQEKQTRCLQILLHYIGSQASMHAGARPLELLCRSLLEAM | 40900
4 | ILLVALPLFSFGFESFLPFGKDSGILYYFWLYSTRVFCPCMGFLWAIFALLPF | 59700
5 | ILLYHPNFLLIAISILYIIWCFMVLIMFCVVLPTAFLLLRAALFYPPHGREFI | 25900
6 | ILMLFLGCLVICDLAFNIIVTILAFTTGFTHLLLSLVPTIPPPNCFLVHWQNH | 54600
7 | ILNITPYAAGQFGYYYGTCWFNDPRPDVQFRWLLGSQSVWILLMSTGEVVFFF | < 6570
8 | ILNVTVRLNFLTFVLQYLMDTDYLSYYFTPLVSFWFLAIWIIMYAGHTWNKIP | 67300
9 | ILPRWIQVAITFVALLAVSCIVMVVGLIVKYWTLSVSFGHFLSRFAVLRYIVL | 58500
10 | ILQCIQYFANFRRDSAWMKLIVWLLFLSFPGLFGLLPHFFVYRFLDTLHVLLI | 68900
11 | ILQHILLWSLMVMTGCCPGSFFITSYYPNEWLKFLDGYMIQPYVTTFMIRGFL | 56900
12 | ILQNDLKFDQILESSYNNSNHTVSKFKVSHYVEESGLLDILMQRYGLTAEDFE | 57600
13 | ILRCYLQYIFALTLVFFWLLYTLTCSISQFSRHLRSWTCWIFYSLYRRILFLG | 56200
14 | ILRKLGFIVHVQLPYNLMINYLRILGLEDDEVISRKAWNYLNDGLRTNIYVTY | 55800
15 | ILRLSVVLKPHHYWWFLLHLLLILLLVAFTCSSFLILKHGPVWILALFLLLHI | 45400
16 | ILRLWQIFWVAAKTDHMSYPRFEAPGCGDFCRDWKVLVAIILIRTKLTMGTRC | 52200
17 | ILRVERTGHSGTLDPKVTGCLIVCIDRATRLVKSQQGAGKEYVAVIRLHGKLP | 33800
18 | ILSPTLFLLFSSSPLPLLFYPHFPFLVLTSYFLLLLYSSVSLFIAFLHSLFLI | 41300
19 | ILSRLSLCIGIIIAFVFCTIPLLTYHRDSPVLRCSLYNIIDNFFLPLYLFIVW | 53400
20 | ILTILYKSNAVFFLEWMVFVAYQIFNLFAWVFNCWGKILPKVGSFFLYVSLVS | 63000
21 | ILVGGFGLELGMNGVYPWYIFLFLACLASDFEFTMLFELTVGFFFPPLLFMCL | 51800

Row | Sequence | transcriptional activation domain activity
22 | ILVHCIRLWTGFLVACFACLILLICLGACNLEMGIVVWSFCLISAGLHSVAVG | 16500
23 | ILVLIVSNLRLMIENFRKYGVLICIRCHDYRRQDVVYGSILYFLVPCHLFVAY | 51300
24 | ILVMWTVISCPVFSFPDRGHGSMLFFLFKLCLVMLLTYLVTMLWFLCVFSIVV | 52100
25 | ILVYLSSVKLRNYRGNTYSFIHLTPWVPLDLLKYACDFLGLLSGFNLLPLYFQ | 56300
26 | IMCQWVKNLKERLLKMPPALRICLADHVLKFVIPKLHILGHLKLCQELFSLLY | 47100
27 | IMGLVFRRARRRTVSLVTKYLITETEVVITYIPAVAVAIFPQLNWIYWMIFYP | 65800
28 | IMGNLVVLLWHTKVDNIESYLADLSRCIEDFLNVTAQCAPSILILKPKFHFLL | 56300
29 | IMGRYCAKAVWLDTRQHLLNKLSQIGFNWDVLKSLVKSWWHYYSLAVMLWLYQ | 69200
30 | IMLVLNWLAVHGLFLVKKKSEKSVYHALHKMPTPPFSDSLRQQCRDRLLACLA | 36700
31 | IMMFPMFIALSILYAMVYLGVLFSFFSVLFFFSVVYFLEPGGLCILDVFFYYY | 68000
32 | IMTKSEQQIVKCVKLMLSSSEKRYRLFNDSFSVIIFRIVDMNYGLRLLNLIID | 56100
33 | IMTLFYSAQRHLNKLILATKIAAGVWPPPDAMAQLRFQIGQLLIFMQTFVSQC | 67400
34 | IMYIICLTIAPSFLCGVLYVSLSRFIAALGHQYSLVPPWLISWVFIFGDFLSL | 62600
35 | IMYSVIVSLLLFLFLLVLLRRYLVSLYYFTSLFLSPRLCARIAIVFRICLLYI | 50300
36 | IMYTSHHDPKHCFEETRDGTLKVHVIGDWLPRGIFGKMYILFAILRQLVLVLW | 74900
37 | INCQVVYQLQGITGHMALNFASINFAIRTIYIWMHNVYVTSTLSLLILCQWVI | 54700
38 | INGLFMLLLVYYLTLYHLARCLGYSVLSYLAHFIRFDGFCPLLHTCAGLLFSS | 42300
39 | INILIFICLPYRNFQFFLYLVPMSCSLTPCHWQVIASKLEILLLSTYWITFVA | 61200
40 | INKGTNRFSETVLPPQMAAEQSWSDSNMELEICLDYLHNELEVIKKRQEDFEC | 60200
41 | INPFFGFLPFFFFFLPHLLLHYLALFFYYYFWFVFFSVPYSCPLVFYLLVFFL | 55200
42 | INSTIHNLCELAILPDLCGICCFSMRFFVYLDLIGTLILPSTVVYLVWLIIQV | 82700

Row | Sequence | transcriptional activation domain activity
43 | INSTIHNLLEVVLLPDLCGFCCFSMRFVVLLDLIGTLTLPVSAVYLVYLIYVI | 59000
44 | INSTVHNLCELVLLPELFGFCCFSMRFFVFIDLLGTLILPATVVYLLYLIIVV | 26100
45 | INSTVHNLCELVLLPELFGFCCFSMRFFVFIDLVGTLILPATVVYLFYLIIVV | 39400
46 | INVTSPPPIDYLSIGDFSFFSFETTDLPFSIDSGVLLPSLSSFEQPIFDFNFI | 143000
47 | IPENELLDEDTMNFISSLKNDLSNISNSLPFEYPHEIAEAIRSDFSNEDIYDN | 98200
48 | IPGPILLCSLTALSCLTLFTLLVSIYWSVSSVCHLIFLTILWILRCLVTLLRF | 34600
49 | IPHGKVGDIFLLFEFSYPIISTIIILFYYYYFYYLLSLHILYFFYYSRCWLLV | 42300
50 | IPIKYNTAIKRHQHSTELPSSVKCGFCNDNTTCVCKELETDHRKSDDGVATEQ | 39200
51 | IPIQLGCMHLHSPWMTYALLYQLIYPMMMIYNLVNCIYFGTGTQMLWWMVSIV | 73000
52 | IPLKKLCHAAIADLFRFLVLSKKDSKDIVARQRLQVAAWMGLWPPKIQRNKWV | 45600
53 | IPPLVLFFHFHFPSCGGCAFCRCLFLCLLLLALSLPLIPVSLIMCYPCHMYLL | 41100
54 | IPSHQFAFGRFMALSSTLGCKFFFSSFNSFFYIFFITLFFSLLLLPFFKNLFF | 39300
55 | IPSLLSLSFYCLGFLSFAISSFSFPSFPLYHYPLCLGFLYSAGWLVGGYLWLY | 77000
56 | IPSSQSRDIANDYDRGSTDNNLVTTTSTSSIFHDEDLTFFDRIPLNSNNNYYF | 102000
57 | IPTPFASHAFNPFDGFLQSLPYHLYAYFIPMHKYLYLSMFVFVNFWTVMIHDG | 50600
58 | IPTPFASHAFNPVDGFLQSLPYHLYAYFIPMHKYLYLSMFVFVNFWTVMIHDG | 58500
59 | IPYVAQEYGFDYELVTYKWPSWLRAQKEKQRVIWAYKILFLDVLFPLDLKKVI | 62100
60 | IQAAGLWQCRYSSYGIECVRYVFFFTMFLFLLRSGWYLSSAFFLGLLWHQLSF | 39600
61 | IQAEGLYDCRYSSYGIELLRYAFYFGMFLFLLRSGWYITSSVFLGTLWHQLSF | 21100
